According to patent US6465618:

T1: His-SAPK3, O08911
T1 chain: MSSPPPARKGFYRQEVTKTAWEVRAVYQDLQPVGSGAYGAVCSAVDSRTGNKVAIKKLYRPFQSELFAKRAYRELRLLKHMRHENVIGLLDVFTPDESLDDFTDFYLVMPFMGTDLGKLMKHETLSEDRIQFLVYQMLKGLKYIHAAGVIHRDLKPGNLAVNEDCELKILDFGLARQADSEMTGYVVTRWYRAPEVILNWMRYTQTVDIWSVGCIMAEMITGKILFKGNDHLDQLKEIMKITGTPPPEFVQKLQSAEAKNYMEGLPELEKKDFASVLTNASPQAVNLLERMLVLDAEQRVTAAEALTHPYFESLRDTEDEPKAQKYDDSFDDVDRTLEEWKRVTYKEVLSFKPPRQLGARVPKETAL

B1: activated GST-MKK7 (protein)
chain: AASSLEQKLSRLEAKLKQENREARRRIDLNLDISPQRPRPIIVITLSPAPAPSQRAALQLPLANDGGSRSPSSESSPQHPTPPARPRHMLGLPSTLFTPRSMESIEIDQKLQEIMKQTGYLTIGGQRYQAEINDLENLGEMGSGTCGQVWKMRFRKTGHVIAVKQMRRSGNKEENKRILMDLDVVLKSHDCPYIVQCFGTFITNTDVFIAMELMGTCAEKLKKRMQGPIPERILGKMTVAIVKALYYLKEKHGVIHRDVKPSNILLDERGQIKLCDFGISGRLVDSKAKTRSAGCAAYMAPERIDPPDPTKPDYDIRADVWSLGISLVELATGQFPYKNCKTDFEVLTKVLQEEPPLLPGHMGFSGDFQSFVKDCLTKDHRKRPKYNKLLEHSFIKRYETLEVDVASWFKDVMAKTESPRTSGVLSQPHLPFFR
B2: GST-SEK1 (protein)
chain: MAAPSPSGGGGSGGGGGTPGPIGPPASGHPAVSSMQGKRKALKLNFANPPVKSTARFTLNPNTTGVQNPHIERLRTHSIESSGKLKISPEQHWDFTAEDLKDLGEIGRGAYGSVNKMVHKPSGQIMAVKRIRSTVDEKEQKQLLMDLDVVMRSSDCPYIVQFYGALFREGDCWICMELMSTSFDKFYKYVYSVLDDVIPEEILGKITLATVKALNHLKENLKIIHRDIKPSNILLDRSGNIKLCDFGISGQLVDSIAKTRDAGCRPYMAPERIDPSASRQGYDVRSDVWSLGITLYELATGRFPYPKWNSVFDQLTQVVKGDPPQLSNSEEREFSPSFINFVNLCLTKDESKRPKYKELLKHPFILMYEERTVEVACYVCKILDQMPATPSSPMYVD
B3: His-MKK7 (protein)
chain: AASSLEQKLSRLEAKLKQENREARRRIDLNLDISPQRPRPIIVITLSPAPAPSQRAALQLPLANDGGSRSPSSESSPQHPTPPTRPRHMLGLPSTLFTPRSMESIEIDQKLQEIMKQTGYLTIGGQRYQAEINDLENLGEMGSGTCGQVWKMRFRKTGHIIAVKQMRRSGNKEENKRILMDLDVVLKSHDCPYIVQCFGTFITNTDVFIAMELMGTCAEKLKKRMQGPIPERILGKMTVAIVKALYYLKEKHGVIHRDVKPSNILLDERGQIKLCDFGISGRLVDSKAKTRSAGCAAYMAPERIDPPDPTKPDYDIRADVWSLGISLVELATGQFPYKNCKTDFEVLTKVLQEEPPLLPGHMGFSGDFQSFVKDCLTKDHRKRPKYNKLLEHSFIKHYEILEVDVASWFKDVMAKTESPRTSGVLSQHHLPFFSGSLEESPTSPPSPKSFPLSPAIPQAQAEWVSGR
B4: His-MKK6 (protein)
chain: MSQSKGKKRNPGLKIPKEAFEQPQTSSTPPRDLDSKACISIGNQNFEVKADDLEPIMELGRGAYGVVEKMRHVPSGQIMAVKRIRATVNSQEQKRLLMDLDISMRTVDCPFTVTFYGALFREGDVWICMELMDTSLDKFYKQVIDKGQTIPEDILGKIAVSIVKALEHLHSKLSVIHRDVKPSNVLINALGQVKMCDFGISGYLVDSVAKTIDAGCKPYMAPERINPELNQKGYSVKSDIWSLGITMIELAILRFPYDSWGTPFQQLKQVVEEPSPQLPADKFSAEFVDFTSQCLKKNSKERPTYPELMQHPFFTLHESKGTDVASFVKLILGD

Assays:
His-SAPK3, O08911 = biological target: T1, His-SAPK3, O08911

Chain of His-p38, P47811 (P47811 whole entry): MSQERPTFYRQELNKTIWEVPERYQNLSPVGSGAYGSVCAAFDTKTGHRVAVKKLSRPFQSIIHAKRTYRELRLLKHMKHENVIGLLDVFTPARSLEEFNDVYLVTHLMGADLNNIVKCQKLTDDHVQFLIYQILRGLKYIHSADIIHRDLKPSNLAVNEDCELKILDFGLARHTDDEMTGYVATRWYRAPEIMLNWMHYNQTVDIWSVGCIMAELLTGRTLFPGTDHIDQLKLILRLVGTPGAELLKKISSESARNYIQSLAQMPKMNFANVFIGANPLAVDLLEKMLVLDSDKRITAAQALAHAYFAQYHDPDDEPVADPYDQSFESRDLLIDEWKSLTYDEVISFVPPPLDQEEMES
Chain of GST-JNK1, P45983 (P45983 other isoform, or with tags, fused parts or gaps): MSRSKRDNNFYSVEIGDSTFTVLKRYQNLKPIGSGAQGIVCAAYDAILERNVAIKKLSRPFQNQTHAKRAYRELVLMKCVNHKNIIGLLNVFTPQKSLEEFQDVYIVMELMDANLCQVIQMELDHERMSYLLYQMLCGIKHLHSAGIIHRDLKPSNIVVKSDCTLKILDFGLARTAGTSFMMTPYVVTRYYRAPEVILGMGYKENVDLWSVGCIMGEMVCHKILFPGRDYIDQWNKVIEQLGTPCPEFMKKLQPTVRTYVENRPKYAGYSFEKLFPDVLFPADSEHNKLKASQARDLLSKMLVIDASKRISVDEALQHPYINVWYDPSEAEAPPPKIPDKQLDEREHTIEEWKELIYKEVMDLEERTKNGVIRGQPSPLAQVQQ

Protein | phosphorylation (activation) of JNK1 in vitro, dot blot with anti-activated JNK antibody (GST-JNK1, P45983) | activation of the MAP kinase in vitro (32P phosphorylation of MBP, SDS-PAGE and autoradiography) (His-SAPK3, O08911) | activation of the MAP kinase in vitro (32P phosphorylation of GST-cJun, SDS-PAGE and autoradiography) (His-SAPKα, Q9WTU6) | activation of the MAP kinase in vitro (32P phosphorylation of ATF-2, SDS-PAGE and autoradiography) (His-p38, P47811)
B1 | the activity of MKK7 was confirmed by the presence of activated JNK1 |  |  | 
B2 |  | activated all of SAPK, p38 and SAPK3 | activated all of SAPK, p38 and SAPK3 | activated all of SAPK, p38 and SAPK3
B3 |  | did not activate p38 and SAPK3 | specifically activated SAPK, leading to the phosphorylation of c-Jun | did not activate p38 and SAPK3
B4 |  | activated p38 and SAPK3 | did not activate SAPK | activated p38 and SAPK3
